Experiments:
Conditions in all cases: both partners purified
[1] = target: T1, lysozyme (Gallus gallus (hen egg white), by PDB …, UniProt P00698); test: ITC; antibody (about 30 uM) titrated into lysozyme (about 2 uM), 25 injections of 10 ul; PBS (20 mM, pH 7.4), 143 mM NaCl; 298 K (25 °C)
T1 construct: lysozyme, the antigen of the anti-lysozyme antibody HyHEL-10; also called antigen

[2] = target: T1, lysozyme; test: ITC; antibody (about 30 uM) titrated into lysozyme (about 2 uM), 25 injections of 10 ul; PBS (20 mM, pH 7.4), 143 mM NaCl; 293 K (20 °C)
[3] = target: T1, lysozyme; test: ITC; antibody (about 30 uM) titrated into lysozyme (about 2 uM), 25 injections of 10 ul; PBS (20 mM, pH 7.4), 143 mM NaCl; 303 K (30 °C)
[4] = target: T1, lysozyme; test: ITC; antibody (about 30 uM) titrated into lysozyme (about 2 uM), 25 injections of 10 ul; PBS (20 mM, pH 7.4), 143 mM NaCl; 293 K (20 °C); remark: listed apart in the source

T1 sequence (P00698 19-147): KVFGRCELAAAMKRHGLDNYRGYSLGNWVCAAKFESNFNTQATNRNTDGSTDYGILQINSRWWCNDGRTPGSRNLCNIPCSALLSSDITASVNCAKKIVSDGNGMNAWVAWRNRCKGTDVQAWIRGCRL

B1: HyHEL-10 Fv fragment, H:R71A mutant (antibody, V domains shown)
VH: DVQLQESGPSLVKPSQTLSLTCSVTGDSITSDYWSWIRKFPGNRLEYMGYVSYSGSTYYNPSLKSRISITADTSKNQYYLDLNSVTTEDTATYYCANWDGDYWGQGTLVTVSA
VL: DIVLTQSPATLSVTPGNSVSLSCRASQSIGNNLHWYQQKSHESPRLLIKYASQSISGIPSRFSGSGSGTDFTLSINSVETEDFGMYFCQQSNSWPYTFGGGTKLEIK
notes: as the VH of m1, with R71A; as the VL of m1; Fv fragment; the text throughout has H:R71A
dH [1]: -27.1 ± 0.086 kcal/mol
dH [2]: -23.78 ± 0.0598 kcal/mol
dH [3]: -31.1 ± 0.347 kcal/mol

B2: HyHEL-10 Fv fragment, L:R45A mutant (antibody, V domains shown)
VH: DVQLQESGPSLVKPSQTLSLTCSVTGDSITSDYWSWIRKFPGNRLEYMGYVSYSGSTYYNPSLKSRISITRDTSKNQYYLDLNSVTTEDTATYYCANWDGDYWGQGTLVTVSA
VL: DIVLTQSPATLSVTPGNSVSLSCRASQSIGNNLHWYQQKSHESPALLIKYASQSISGIPSRFSGSGSGTDFTLSINSVETEDFGMYFCQQSNSWPYTFGGGTKLEIK
notes: as the VH of m1; as the VL of m1, with R45A; Fv fragment; the text throughout has L:R45A
dH [1]: -17.57 ± 0.0359 kcal/mol
dH [4]: -16.46 ± 0.0502 kcal/mol
dH [3]: -18.97 ± 0.055 kcal/mol

— PMC5577056 (Scientific Reports, 2017)
